This data set is described as follows: self-splicing fitness, log relative to wild type (ln ratio); higher = more splicing; Tetrahymena group I intron in knt gene, E. coli kanamycin selection, DiMSum; sequences stand for … in CUCUCU…GGAGGGAAAAGUUAUCAGGCAUGCACCUGGUAGCUAGUCUUUAAACCAAUAGAUUGCAUCGGUUUAAAAGGCAAGACCGUCAAAUUGCGGGAAAGGGGUCAACAGCCGUUCAGUACCAAGUCUCAGGGGAAACUUUGAGAUGGCCUUGCAAAGGGUAUGGUAAUAAGCUGACGGACAUGGUCCUAACCACGCAGCCAAGUCCUAAGUCAACAGAUCUUCUGUUGAUAUGGAUGCAGUUCACAGACUAAAUGUCGGUCGGGGAAGAUGUAUUCUUCUCAUAAGAUAUAGUCGGACCUCUCCUUAAUGGGAGCUAGCGGAUGAAGUGAUGCAACACUGGAGCCGCUGGGAACUAAUUUGUAUGCGAAAGUAUAUUGAUUAGUUUUGGAGUACUCGUGGUCG
The gist of the method: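 Six replicate transformations of E. coli BL21(DE3) with a pET-22b(+) library were grown overnight at 37°C or 30°C. The library randomised all eight P1ex-region intron nucleotides, the intron lying in the knt kanamycin-resistance gene, and plates were LB agar with or without 25 μg/mL kanamycin plus 100 μg/mL carbenicillin, 50 μM IPTG and 0.2% rhamnose. Pooled colonies were amplicon-sequenced on an Illumina HiSeq 2500, and fitness is the DiMSum error-weighted combination of wild-type-normalised replicate fold changes, kanamycin versus none.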

± gives the uncertainty stated by the source.

Consider AGAAAGCAAUAUUACGGGCG, for which the “self-splicing fitness (ln)” value (30 °C) was -0.886 ± 0.1 and the “self-splicing fitness (ln)” value (37 °C) was -0.328 ± 0.12.
On the same counts, the results for AGAAAGCAAUAUUACGGUAA are -2.66 ± 0.25 and -0.265 ± 0.14.
On the same counts, the results for AGAAAGCAAUAUUACGGUCU are -1.11 ± 0.082 and -0.58 ± 0.09.
In the case of AGAAAGCAAUAUUACGUAAU, the “self-splicing fitness (ln)” value reads like this: (30 °C) -1.6 ± 0.087; (37 °C) -1.27 ± 0.12.
In the case of AGAAAGCAAUAUUACGUUGA, the “self-splicing fitness (ln)” value runs as follows: (30 °C) -2.09 ± 0.14; (37 °C) -1.23 ± 0.14.
As to AGAAAGCAAUAUUACGUUGU, the “self-splicing fitness (ln)” value reads like this: (30 °C) -4.11 ± 0.14; (37 °C) -1.88 ± 0.099.
For AGACAGCAAUAUUACGAAAU the same measures were -2.88 ± 0.17 and -1.43 ± 0.14.
On the same counts, the results for AGACAGCAAUAUUACGAAUA are -2.38 ± 0.24 and -1.62 ± 0.19.
On the same counts, the results for AGACAGCAAUAUUACGACAC are -1 ± 0.11 and -0.662 ± 0.14.
In the case of AGACAGCAAUAUUACGACCA, the “self-splicing fitness (ln)” value is, setting by setting: (30 °C) -0.623 ± 0.11; (37 °C) -0.823 ± 0.13.
For AGACAGCAAUAUUACGAGAG the same measures were -4.6 ± 0.34 and -2.12 ± 0.17.
AGACAGCAAUAUUACGCCAA: the “self-splicing fitness (ln)” value is -2.35 ± 0.15 (30 °C) and -1.1 ± 0.12 (37 °C).
For AGACAGCAAUAUUACGCGAU the same measures were -2.68 ± 0.14 and -1.29 ± 0.15.
Turning to AGACAGCAAUAUUACGGAAC, the “self-splicing fitness (ln)” value (37 °C) was -1.4 ± 0.22.
For the sequence AGACAGCAAUAUUACGGACG, the “self-splicing fitness (ln)” value was -1.14 ± 0.066 (30 °C) and -0.531 ± 0.071 (37 °C).
With AGACAGCAAUAUUACGGACU, the “self-splicing fitness (ln)” value runs as follows: (30 °C) -0.583 ± 0.068; (37 °C) -0.3 ± 0.087.
For AGACAGCAAUAUUACGGCAC the same measures were -0.629 ± 0.086 and -1.09 ± 0.094.
For AGACAGCAAUAUUACGGCGC, the “self-splicing fitness (ln)” value was -0.893 ± 0.092 (30 °C) and -0.134 ± 0.12 (37 °C).
Take AGACAGCAAUAUUACGGCUG: the “self-splicing fitness (ln)” value reads like this: (30 °C) -2.93 ± 0.14; (37 °C) -2.34 ± 0.19.
On the same counts, the results for AGACAGCAAUAUUACGGCUU are -0.243 ± 0.094 and 0.564 ± 0.14.
For AGACAGCAAUAUUACGGUCG the same measures were -1.02 ± 0.093 and -0.102 ± 0.12.
For AGACAGCAAUAUUACGUAAA the same measures were -2.15 ± 0.072 and -1.05 ± 0.08.
For AGACAGCAAUAUUACGUGAG, the “self-splicing fitness (ln)” value is, setting by setting: (30 °C) -1.67 ± 0.056; (37 °C) -0.569 ± 0.087.
For AGACAGCAAUAUUACGUGUA the same measures were -1.89 ± 0.078 and -1.61 ± 0.069.
On the same counts, the results for AGAGAGCAAUAUUACGAACA are -2.8 ± 0.36 and -2.84 ± 0.31.
For AGAGAGCAAUAUUACGACAU the same measures were -2.476 ± 0.019 and -1.94 ± 0.037.
For AGAGAGCAAUAUUACGACCG, where the note is “30 °C”, the “self-splicing fitness (ln)” value was -2.92 ± 0.4.
Regarding AGAGAGCAAUAUUACGACGA, the “self-splicing fitness (ln)” value (37 °C) is -1.61 ± 0.29.
As for AGAGAGCAAUAUUACGACGU, the “self-splicing fitness (ln)” value (30 °C) was -1.84 ± 0.15 and the “self-splicing fitness (ln)” value (37 °C) is -0.382 ± 0.15.
For AGAGAGCAAUAUUACGAUGG the same measures were -4.56 ± 0.36 and -1.17 ± 0.29.
Turning to AGAGAGCAAUAUUACGCCGA, the “self-splicing fitness (ln)” value (37 °C) is -1.55 ± 0.43.
Turning to AGAGAGCAAUAUUACGCUGC, the “self-splicing fitness (ln)” value is -2.3 ± 0.23 (30 °C) and -2.63 ± 0.34 (37 °C).
Turning to AGAGAGCAAUAUUACGGCAG, the “self-splicing fitness (ln)” value was -1.51 ± 0.24 (30 °C) and -1.42 ± 0.43 (37 °C).
For AGAGAGCAAUAUUACGUAGU the same measures were -3.49 ± 0.3 and -2.47 ± 0.26.
Consider AGAGAGCAAUAUUACGUCCG, for which, where the note is “37 °C”, the “self-splicing fitness (ln)” value is -1.63 ± 0.33.
The same measure, in the same setting: the value for AGAGAGCAAUAUUACGUGUC was -2.33 ± 0.37.
For the sequence AGAGAGCAAUAUUACGUUCG, the “self-splicing fitness (ln)” value was -2.2 ± 0.16 (30 °C) and -2.07 ± 0.23 (37 °C).
On the same counts, the results for AGAUAGCAAUAUUACGAAAA are -2.71 ± 0.24 and -2.12 ± 0.22.
For AGAUAGCAAUAUUACGACAG, the “self-splicing fitness (ln)” value is, setting by setting: (30 °C) -2.26 ± 0.15; (37 °C) -0.465 ± 0.18.
For AGAUAGCAAUAUUACGACCU the same measures were 0.592 ± 0.11 and 0.469 ± 0.15.

For the origin of these results see the supplement of paper PMC7877785.
